Reference: the supplement of paper PMC10201428
± gives the standard deviation of the averaged measurements.

B1: library; a variant is named by its letters at N, in order (parent)
chain: AATGTTGTTGATGCAACCATAAAGTGATATTTAATAATTATTTATAATCAGCAACTTAACCACAAAACAACCATATATTGATATNTCACAAAACAACCATAANTTGATATTTTTGTGAATCGAGTATTTCAGCAAAACTACTGCAGTAAGAA

What was measured:
[1] = variants of: B1; test: relative integration efficiency (T-LR orientation) vs wild-type transposon end (log2 (normalized fold change)); transposon end mutated: left end; higher = more efficient transposition; settings: with VchCAST RNA-guided transposition machinery (E. coli BL21(DE3) host, lacZ target)
Procedure, shortened: (§1)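 Each barcoded pool, 1549 left-end or 1849 right-end transposon variants in a pUC57 mini-transposon donor, went into E. coli BL21(DE3) with a T7-driven effector plasmid (CRISPR array, tniQ-cas8-cas7-cas6, tnsA-tnsB-tnsC). Plates contained 0.1 mM IPTG and were held at 37°C for 18 h. Input plasmids and genomic integration junctions were PCR-amplified and read by Illumina sequencing, with two biological output replicates and four reference barcodes. Relative integration efficiency is the fold change of output over input barcode abundance, normalised to the reference barcodes and log-transformed.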

[2] = variants of: B1; test: relative integration efficiency (T-RL orientation) vs wild-type transposon end (log2 (normalized fold change)); transposon end mutated: left end; higher = more efficient transposition; settings: with VchCAST RNA-guided transposition machinery (E. coli BL21(DE3) host, lacZ target)
Procedure, shortened: as §1

Row | Variant | relative integration efficiency (log2) [1] | relative integration efficiency (log2) [2]
1 | AATGTTGTTGATGCAACCATAAAGTGATATTTAATAATTATTTATAATCAGCAACTTAACCACAATTCAACCATATATTGATATCTCACAAAACAACCATAAGTTGATATTTTTGTGAATCGAGTATTTCAGCAAAACTACTGCAGTAAGAA [CG A66T A67T] | 0.205 ± 0.48 | -0.0368 ± 0.048
2 | AATGTTGTTGATGCAACCATAAAATGATAATTAATAATTATTTATAATCAGCAACTTAACCACAAAACAACCATAAAGTGATATTTAACAAAACACCCATAAATTGATAATTATGTGAATCGAGTATTTCAGCAAAACTACTGCAGTAAGAA [TA G24A T30A T76A T78G C87A A96C T110A T113A] | 0.291 ± 0.89 | 0.0775 ± 0.15
3 | AATGTTGTTGATGCAACCATAAAGTGAATAATAATAATTATTTATAATCAGCAACTTAACCACAAAACAACCATATATTGATATCTCACAAAACAACCATAAGTTGATATTTTTGTGAATCGAGTATTTCAGCAAAACTACTGCAGTAAGAA [CG T28A A29T T30A T31A] | -0.974 ± 0.69 | -1.12 ± 0.46
4 | AATGTTGTTGATGCAACCATAAAGTGATATTTAATAATTATTTATAATCAGCAACTTAACCACAAAACAACCATATATTGATATCTCACAAAACAACCATAAGTTGACATTTTTGTGAATCGAGTATTTCAGCAAAACTACTGCAGTAAGAA [CG T108C] | -0.173 ± 0.39 | -0.187 ± 0.35
5 | AATGTTGTTGATGCAACCATAAAGTGATATTTTATAATTATTTATAATCAGCAACTTAACCACAAAACAACCATATATTGATATCTGACAAAACAACCATAAGTTGATATTTATGTGAATCGAGTATTTCAGCAAAACTACTGCAGTAAGAA [CG A33T C87G T113A] | 0.02216 ± 0.00015 | -0.157 ± 0.2
6 | AATGTTGTTGATGCAACCATAAGTTGATATTTTATAATTATTTATAATCAGCAACTTAACCACAAAACAACCATATATTGATATCTCACAAAACACCCATAAATTGATATTGCTGTGAATCGAGTATTTCAGCAAAACTACTGCAGTAAGAA [CA A23G G24T A33T A96C T112G T113C] | -0.242 ± 0.57 | -0.198 ± 0.26
7 | AATGTTGTTGATGCAACCATAAAGTGATATTTAATAATTATTTATAATCAGCAACTTAACCACAAAACAACCATATATTGATATCTCACAAAACAACCATAAGTTGATATTTTTGTGAATCGAGTATTTCAGCAAAACTACTGCAGTAAGAA [CG] | -0.0136 ± 0.21 | -0.00322 ± 0.1
8 | ATAGTTGTTGATGCAACCATAAAGTGATATTTAATAATTATTTATAATCAGCAACTTAACCACAAAACAACCATATATTGATATCTCACAAAACAACCATAAGTTGATATTTTTGTGAATCGAGTATTTCAGCAAAACTACTGCAGTAAGAA [CG A2T T3A] | 0.399 ± 0.43 | 0.191 ± 0.092
9 | AATGTTGTTGATGCAACCATAAAGTGATATTTAATAATTAAATGTGAGCGAGTAACAACCCACAAAACAACCATATATTGATATCTCACAAAACAACCATAAGTTGATATTTTTGTGAATCGAGTATTTCAGCAAAACTACTGCAGTAAGAA [CG T41A T42A A44G A46G T48G A50G G51A C52G A53T C55A T56C T57A A59C] | 0.615 ± 1 | -4.14 ± 1.1
10 | AATGTTGTTGATGCAACCATAAAGTGATATTTAATAATTATTTATAAAGTCCAACTTAACCACAAAACAACCATATATTGATATCTCACAAAACAACCATAAGTTGATATTTTTGTGAATCGAGTATTTCAGCAAAACTACTGCAGTAAGAA [CG T48A C49G A50T G51C] | -2.64 ± 0.41 | -2.28 ± 0.62
